Laboratory results taken from US11091749B2, “Deimmunized lysostaphin and methods of use” (TRUSTEES OF DARTMOUTH COLLEGE, priority 2014, dated 2021).

Legend:
[1] = P. pastoris expression level by SDS-PAGE; conditions: densitometry of SDS-PAGE gels
Description: After DH5a clones were confirmed for the presence of correct catalytic domain mutation by sequence analysis, the purified plasmid was digested with SacI High-Fidelity restriction enzyme prior to electroporation into P. pastoris strain GS115. The resulting transformants were grown on MD plates (1.34% yeast nitrogen base, 0.000004% biotin, 2% dextrose and 1% agar). For expression studies, clones were grown in BMGY media (1% yeast extract, 2% peptone, 1.34% yeast nitrogen base, 0.000004% biotin, 1% glycerol, 100 mM phosphate buffer, pH 6) at 30° C. in 500 ml shake flasks covered with four layers of cheese cloth for enhanced oxygen flow to the yeast. […] The purity of lysostaphin was determined using SDS-PAGE. The protein concentration was quantified using ND-1000 Spectrophotometer (NanoDrop Technologies; Wilmington, Del.). To ensure accuracy, protein absorbance measure was adjusted using the absorbance adjustment factor of 0.4 for both wild-type lysostaphin and its variants. Briefly, the adjustment factor was calculated as the inverse of the reported Abs 0.1% (=1 g/L) value (ProtParam, ExPASy).
The amount of protein used in each assay was estimated from SDS-PAGE gels. […] The gel was stained using GELCODE Blue Stain Reagent from Thermo Fisher Scientific (Carlsbad, Calif.) and bands quantified using Quantity Tools from Image Lab 5.1 software (Bio-Rad Laboratories; Hercules, Calif.). […]

[2] = Thermostability by differential scanning fluorimetry; assay type: physicochemical
Description: The relative thermostability of the lysostaphin variants was determined by differential scanning fluorimetry, as previously described (Niesen, et al. (2007) Nat. Protocols 2:2212-2221). Proteins and SYPRO Orange were diluted in PBS (final concentrations of 100 μg/ml and 5× in 20 μl reaction volume, respectively), and fluorescence was quantified at 1-degree increments from 25 to 94° C. using an Applied Biosystems ABI 7500 fast real-time PCR system. The reactions were performed using PCR Plates for Fast Thermocyclers (VWR; Radnor, Pa.). Fluorescence was quantified using the preset TAMRA parameters. Melting temperatures were determined by data analysis with the ‘DSF Analysis v3.0.xlsx’ EXCEL sheet and GraphPad Prism v.6.02 software.

Question: For “Wild-Type: wild-type lysostaphin (SEQ ID NO:49) produced in P. pastoris; aglycosylated Ser126Pro backbone in the design studies [reference compound]”, which “Expression Level (% WT)” value [1] is on record?
Answer: Its value is 100 % WT.

Question: And the Tm ([2]; SYPRO Orange, PBS)?
Answer: Its Tm is 59.2 °C.

Question: And the Tm ([2]; biological duplicates)?
Answer: The Tm was 59.0 °C.
